From publication PMC3511393, “Identification and Characterisation of the RalA-ERp57 Interaction: Evidence for GDI Activity of ERp57” (PLoS ONE, 2012)

Target: T1, 6xHis-ERp57 (human, UniProt P30101 24-505)
T1 construct: ERp57, human cDNA without the region encoding the N-terminal signal peptide (amino acids 1-23); also called wt ERp57; wild-type 6xHis-ERp57; source: E. coli, purified (Ni-NTA); not shown: 6xHis, N-terminal, kept
T1 sequence (looked up): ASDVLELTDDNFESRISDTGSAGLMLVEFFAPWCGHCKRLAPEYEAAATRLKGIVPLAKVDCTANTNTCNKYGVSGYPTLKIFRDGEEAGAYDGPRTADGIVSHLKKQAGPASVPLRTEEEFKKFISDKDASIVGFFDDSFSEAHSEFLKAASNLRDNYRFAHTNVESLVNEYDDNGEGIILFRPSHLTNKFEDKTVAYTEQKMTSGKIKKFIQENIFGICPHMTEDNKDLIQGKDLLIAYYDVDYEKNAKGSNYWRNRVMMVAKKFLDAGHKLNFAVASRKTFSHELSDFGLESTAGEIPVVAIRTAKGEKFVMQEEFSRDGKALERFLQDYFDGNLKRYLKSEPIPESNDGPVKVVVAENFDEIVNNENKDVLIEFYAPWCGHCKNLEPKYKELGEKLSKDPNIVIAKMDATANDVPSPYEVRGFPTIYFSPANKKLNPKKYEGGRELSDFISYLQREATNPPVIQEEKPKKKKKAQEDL
Assay: pull-down; GST-RalA loaded with GDP as bait; purified 6xHis-ERp57 or mutants; Western blot with anti-6xHis antibody; with or without 1 mM DTT
Settings: both partners purified

- binding result: binds
B1: GST-RalA (natural protein, simian, UniProt P63320 1-206, looked up)
chain: MAANKPKGQNSLALHKVIMVGSGGVGKSALTLQFMYDEFVEDYEPTKADSYRKKVVLDGEEVQIDILDTAGQEDYAAIRDNYFRSGEGFLCVFSITEMESFAATADFREQILRVKEDENVPFLLVGNKSDLEDKRQVSVEEAKNRADQWNVNYVETSAKTRANVDKVFFDLMREIRARKMEDSKEKNGKKKRKSLAKRIRERCCIL
notes: RalA, simian cDNA (pGEX-2T-RalA from Yoshito Kaziro); loaded with GDP or GTP immediately before use; Nucleotide state (GDP or GTP) is told by the assay; also called RalA-GDP; RalA-GTP; source: when necessary eluted with reduced GSH and dialysed; not shown: GST, N-terminal, kept
